Results as given in patent publication US20180057542A1 (University of Washington, published 2018).
Where a chain is given by its changes, count along the chain named. Names and notes keep the numbering of the source.

T1: urea-expanded bacteriophage lambda capsid shell (bacteriophage lambda, UniProt P03713 1-341; P03710 23-533)
T1 construct: also called expanded capsid; expanded capsid lattice
T1 sequence 1: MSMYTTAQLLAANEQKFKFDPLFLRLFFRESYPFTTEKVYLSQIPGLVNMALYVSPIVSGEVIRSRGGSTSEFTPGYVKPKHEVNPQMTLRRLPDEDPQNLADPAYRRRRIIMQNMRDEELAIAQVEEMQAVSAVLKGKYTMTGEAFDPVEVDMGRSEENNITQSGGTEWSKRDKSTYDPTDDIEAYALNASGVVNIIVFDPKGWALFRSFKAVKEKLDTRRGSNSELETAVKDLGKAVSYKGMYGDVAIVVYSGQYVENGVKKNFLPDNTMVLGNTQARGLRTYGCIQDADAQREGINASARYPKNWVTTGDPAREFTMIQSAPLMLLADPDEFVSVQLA
T1 sequence 2: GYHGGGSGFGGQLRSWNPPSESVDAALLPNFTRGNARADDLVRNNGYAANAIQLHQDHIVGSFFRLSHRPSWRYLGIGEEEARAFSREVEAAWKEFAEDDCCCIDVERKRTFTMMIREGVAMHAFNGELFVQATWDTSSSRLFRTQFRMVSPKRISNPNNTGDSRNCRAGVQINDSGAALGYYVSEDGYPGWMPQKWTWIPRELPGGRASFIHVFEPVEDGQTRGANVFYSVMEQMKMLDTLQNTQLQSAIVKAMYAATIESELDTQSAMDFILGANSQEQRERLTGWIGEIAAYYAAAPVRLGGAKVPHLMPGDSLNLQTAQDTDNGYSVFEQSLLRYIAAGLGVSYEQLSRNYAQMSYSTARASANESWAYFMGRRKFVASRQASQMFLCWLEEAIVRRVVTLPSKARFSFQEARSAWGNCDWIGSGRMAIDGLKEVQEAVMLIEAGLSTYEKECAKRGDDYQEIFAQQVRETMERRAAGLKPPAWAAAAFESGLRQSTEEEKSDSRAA

B1: wild-type bacteriophage lambda gpD decoration protein (other)
chain: MTSKETFTHYQPQGNSDPAHTATAPGGLSAKAPAMTPLMLDTSSRKLVAWDGTTDGAAVGILAVAADQTSTTLTFYKSGTFRYEDVLWPEAASDETKKRTAFAGTAISIV
notes: Monomer in solution; adds to the expanded capsid as trimer spikes at the 140 three-fold axes (420 copies per shell); also called gpD-WT; gpD-wt
B2: gpD(S42C) (other)
chain: B1 chain with S43C
B3: gpD(S42C::sMannose) (other)
chain: HHHHHHMTSKETFTHYQPQGNSDPAHTATAPGGLSAKAPAMTPLMLDTCSRKLVAWDGTTDGAAVGILAVAADQTSTTLTFYKSGTFRYEDVLWPEAASDETKKRTAFAGTAISIV
modifications: 6'-maleimidohexanamido-polyethyleneglycol mannoside (sMannose) on Cys42 (numbering without the N-terminal methionine)
notes: The presence of the H6 tag is therefore not certain; also called gpD-mannose; gpD glycoprotein
B4: H6-gpD-GFP (other)
chain: B3 chain with C49S
notes: HIS-tagged fusion of an N-terminal gpD domain and a C-terminal GFP domain; also called gpD-Green Fluorescent Protein; GFP-tagged gpD

Assays:
[1] = target: T2, Concanavalin A (UniProt P02866 30-281); assay: agglutination assay (absorbance at 350 nm) of decorated capsids with Concanavalin A
T2 construct: Used at 1 uM in the agglutination assay; It recognises the mannose conjugated to gpD(S42C); also called Con A; ConA

[2] = target: T1, urea-expanded bacteriophage lambda …; assay: SDS-PAGE of capsids decorated with gpD-WT alone and separated from unreacted protein
[3] = target: T1, urea-expanded bacteriophage lambda …; assay: in vitro capsid decoration, SDS-PAGE of isolated decorated capsids

| Binder | binding result [1] | ratio of major capsid protein (gpE) to gpD-WT in the decorated particles [2] | Surface Density (% relative to gpD) [3] |
| --- | --- | --- | --- |
| B1 | no binding (tested: 1 µM ConA, 1 µM gpD equivalent) | ~1 ratio gpE:gpD-WT | 100 % relative to gpD |
| B2 | no binding (tested: 1 µM ConA, 1 µM gpD equivalent) | – | 90 % relative to gpD |
| B3 | – | – | 82 % relative to gpD |
| B4 | – | – | 77 % relative to gpD |
